Assays:
[1] = target: T1, WT G-CSFR(Ig-CRH), purified, tag cleaved (human, UniProt Q99062 26-331); assay: SPR (Biacore T200), WT G-CSFR(Ig-CRH) amine-coupled
T1 construct: also called G-CSFRWT; wild type G-CSFR ECD
T1 chain: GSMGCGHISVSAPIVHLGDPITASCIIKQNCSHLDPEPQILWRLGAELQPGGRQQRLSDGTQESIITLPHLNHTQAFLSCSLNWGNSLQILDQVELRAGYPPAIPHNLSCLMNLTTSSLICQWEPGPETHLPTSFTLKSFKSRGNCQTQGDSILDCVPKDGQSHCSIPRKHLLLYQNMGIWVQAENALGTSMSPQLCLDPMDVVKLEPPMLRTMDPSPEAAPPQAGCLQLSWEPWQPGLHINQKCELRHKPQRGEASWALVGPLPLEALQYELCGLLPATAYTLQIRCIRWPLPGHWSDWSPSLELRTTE

[2] = target: T2, G-CSFR(Ig-CRH)E design 307, purified, tag cleaved (human, UniProt Q99062 26-331); assay: SPR (Biacore T200), G-CSFR(Ig-CRH)E amine-coupled, G-CSFE injected; steady-state derived KD relative to steady-state WT:WT KD
T2 construct: SPR protein; also called Design 307 G-CSFR(Ig-CRH)E
T2 chain: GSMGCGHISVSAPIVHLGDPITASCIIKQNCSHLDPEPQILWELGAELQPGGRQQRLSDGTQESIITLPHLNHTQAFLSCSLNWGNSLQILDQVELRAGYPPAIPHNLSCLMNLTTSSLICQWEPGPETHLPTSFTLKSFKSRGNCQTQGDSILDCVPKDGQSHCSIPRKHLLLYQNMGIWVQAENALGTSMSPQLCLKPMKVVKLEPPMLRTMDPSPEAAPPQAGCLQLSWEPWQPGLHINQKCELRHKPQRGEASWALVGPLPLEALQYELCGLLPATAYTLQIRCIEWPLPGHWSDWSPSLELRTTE
Experimental: To determine binding affinity of G-CSFE to G-CSFRE the G-CSFRE mutant was captured by standard amine coupling as described by the manufacturer (GE LifeSciences). Briefly, immediately after EDC/NHS activation, a 5 μg/mL solution of G-CSFRE in 10 mM NaOAc, pH 5.0, was injected at a flow rate of 5 μL/min until a receptor density of ˜700-900 RU was reached. The remaining active groups were quenched by a 420 s injection of 1 M ethanolamine hydrochloride-NaOH pH 8.5 at 10 μL/min. Using single-cycle kinetics, six concentrations of a two-fold dilution series of the corresponding G-CSFE mutant starting at 200 nM with a blank buffer control were sequentially injected at 25 μL/min for 300s with a 1800s dissociation phase, resulting in a set of sensorgrams with a buffer blank reference. The same sample titration was also performed on a reference cell with no variants captured. The chip was regenerated to prepare for the next injection cycle by one pulse of 10 mM glycine/HCl, pH 2.0, for 30 s at 30 μL/min.
Double-referenced sensorgrams from duplicate or triplicate repeat injections were analyzed using Biacore™ T200 Evaluation Software v3.0 and fit to the 1:1 Langmuir binding model.
Kinetic-derived affinity constants (KD) where obtained by fitting the association and dissociation phases of the curves. […] For the cases in which the kinetic parameters could not be fit an attempt was made to derive a steady state affinity constant.

B1: G-CSFE design 307, purified, tag cleaved (ligand)
chain: TPLGPASSLPQEFLLDCLKQVRKIQGDGAALQEKLCATYKLCHPERLVLLGHSLGIPWAPLSSCPSQALQLAGCLSQLHSGLFLYQGLLQALEGISPELGPTLDTLQLDVADFATTIWQQMEELGMAPALQPTQGAMPAFASAFQRRAGGVLVASHLQSFLEVSYRVLRHLAQAAAENLYFQ
notes: also called 307 G-CSF
[1]
  binding result: no binding
[2]
  KD fold change (vs WT:WT): 0.6 fold
